# Reference: patent US20150147274A1 (CANCER RESEARCH TECHNOLOGY, published 2015)
# Molecular target: T1, MET928 (cMET protein derived from construct 25-928) (human, UniProt P08581 25-928)
# T1 construct: MET ectodomain, residues 1-24 are the leader; produced in Lec 8 cells; background text says the ectodomain is furin-cleaved into alpha (25-307) and beta chains; biotinylated form used in selections; also called MET928 extracellular domain; Met extracellular domain
# Assay: ELISA, soluble scFv
# T1 sequence (P08581 25-928): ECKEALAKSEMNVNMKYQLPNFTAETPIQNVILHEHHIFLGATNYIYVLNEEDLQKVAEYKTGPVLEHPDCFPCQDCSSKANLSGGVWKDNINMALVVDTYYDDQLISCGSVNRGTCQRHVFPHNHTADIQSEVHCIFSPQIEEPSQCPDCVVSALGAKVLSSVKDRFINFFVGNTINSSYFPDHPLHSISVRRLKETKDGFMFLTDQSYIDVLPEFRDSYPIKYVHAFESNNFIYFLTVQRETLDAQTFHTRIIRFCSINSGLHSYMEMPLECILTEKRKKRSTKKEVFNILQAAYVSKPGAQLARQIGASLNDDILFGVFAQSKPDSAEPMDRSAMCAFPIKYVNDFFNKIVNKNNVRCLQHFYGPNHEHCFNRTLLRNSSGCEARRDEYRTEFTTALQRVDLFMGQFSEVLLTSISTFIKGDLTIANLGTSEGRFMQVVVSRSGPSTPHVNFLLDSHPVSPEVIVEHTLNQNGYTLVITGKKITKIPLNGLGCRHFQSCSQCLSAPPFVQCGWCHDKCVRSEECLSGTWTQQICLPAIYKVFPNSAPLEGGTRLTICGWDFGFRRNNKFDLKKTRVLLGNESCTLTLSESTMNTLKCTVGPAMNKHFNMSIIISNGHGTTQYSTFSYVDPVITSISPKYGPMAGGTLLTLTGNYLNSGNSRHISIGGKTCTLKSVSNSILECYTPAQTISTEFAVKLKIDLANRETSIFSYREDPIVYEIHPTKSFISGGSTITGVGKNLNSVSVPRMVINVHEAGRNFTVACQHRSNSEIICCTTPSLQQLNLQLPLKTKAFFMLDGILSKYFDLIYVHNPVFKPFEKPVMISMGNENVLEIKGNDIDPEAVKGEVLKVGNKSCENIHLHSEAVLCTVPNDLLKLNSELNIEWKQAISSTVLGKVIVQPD
row,binding result,Binder
1,binds,"110_B8 (scFv, not shown: 6xHis/tri-FLAG tags) scFv: QMQLVQSGAEVKKPGAPVKVSCKVSGYTFTDYYMHWVQQAPGKGLEWMGLVDPEDGETIYAEKFQGRVTITADTSTDTAYMELSSLRSEDTAVYYCATDATTPYWGMMLWGQGTLVTVSSLEGGGGSGGGGSGGGASDIQMTQSPSSLSASVGDRVTITCQASQDISNYLNWYQQKPGRAPKVLIYDASNLETGVPSRFSGSGSGTEFTLTISNLRPDDFATYYCQQGDSFPLTFGGGTKVEIK"
2,binds,"111_D8 (scFv, not shown: 6xHis/tri-FLAG tags) scFv: QMQLVQSGAEVKKPGAPVKVSCKVSGYTFTDYYMHWVQQAPGKGLEWMGLVDPEDGETIYAEKFQGRVTITADTSTDTAYMELSSLRSEDTAVYYCATDATTPYWGMSWWGQGTLVTVSSLEGGGGSGGGGSGGGASDIQMTQSPSSLSASVGDRVTITCQASQDISNYLNWYQQKPGRAPKVLIYDASNLETGVPSRFSGSGSGTEFTLTISNLRPDDFATYYCQQGDSFPLTFGGGTKVEIK"
3,binds,"111_D7 (scFv, not shown: 6xHis/tri-FLAG tags) scFv: QMQLVQSGAEVKKPGAPVKVSCKVSGYTFTDYYMHWVQQAPGKGLEWMGLVDPEDGETIYAEKFQGRVTITADTSTDTAYMELSSLRSEDTAVYYCATDATTPYWFPYAWGQGTLVTVSSLEGGGGSGGGGSGGGASDIQMTQSPSSLSASVGDRVTITCQASQDISNYLNWYQQKPGRAPKVLIYDASNLETGVPSRFSGSGSGTEFTLTISNLRPDDFATYYCQQGDSFPLTFGGGTKVEIK"
4,binds,"111_D1 (scFv, not shown: 6xHis/tri-FLAG tags) scFv: QMQLVQSGAEVKKPGAPVKVSCKVSGYTFTDYYMHWVQQAPGKGLEWMGLVDPEDGETIYAEKFQGRVTITADTSTDTAYMELSSLRSEDTAVYYCATDATTPYWGMDEWGQGTLVTVSSLEGGGGSGGGGSGGGASDIQMTQSPSSLSASVGDRVTITCQASQDISNYLNWYQQKPGRAPKVLIYDASNLETGVPSRFSGSGSGTEFTLTISNLRPDDFATYYCQQGDSFPLTFGGGTKVEIK"
5,binds,"111_C3 (scFv, not shown: 6xHis/tri-FLAG tags) scFv: QMQLVQSGAEVKKPGAPVKVSCKVSGYTFTDYYMHWVQQAPGKGLEWMGLVDPEDGETIYAEKFQGRVTITADTSTDTAYMELSSLRSEDTAVYYCATDATTPYWGMQGWGQGTLVTVSSLEGGGGSGGGGSGGGASDIQMTQSPSSLSASVGDRVTITCQASQDISNYLNWYQQKPGRAPKVLIYDASNLETGVPSRFSGSGSGTEFTLTISNLRPDDFATYYCQQGDSFPLTFGGGTKVEIK"
6,binds,"111_D3 (scFv, not shown: 6xHis/tri-FLAG tags) scFv: QMQLVQSGAEVKKPGAPVKVSCKVSGYTFTDYYMHWVQQAPGKGLEWMGLVDPEDGETIYAEKFQGRVTITADTSTDTAYMELSSLRSEDTAVYYCATDATTPYWGAALWGQGTLVTVSSLEGGGGSGGGGSGGGASDIQMTQSPSSLSASVGDRVTITCQASQDISNYLNWYQQKPGRAPKVLIYDASNLETGVPSRFSGSGSGTEFTLTISNLRPDDFATYYCQQGDSFPLTFGGGTKVEIK"
7,binds,"111_D4 (scFv, not shown: 6xHis/tri-FLAG tags) scFv: QMQLVQSGAEVKKPGAPVKVSCKVSGYTFTDYYMHWVQQAPGKGLEWMGLVDPEDGETIYAEKFQGRVTITADTSTDTAYMELSSLRSEDTAVYYCATDATTPYWGMWVWGQGTLVTVSSLEGGGGSGGGGSGGGASDIQMTQSPSSLSASVGDRVTITCQASQDISNYLNWYQQKPGRAPKVLIYDASNLETGVPSRFSGSGSGTEFTLTISNLRPDDFATYYCQQGDSFPLTFGGGTKVEIK"
8,binds,"111_C5 (scFv, not shown: 6xHis/tri-FLAG tags) scFv: QMQLVQSGAEVKKPGAPVKVSCKVSGYTFTDYYMHWVQQAPGKGLEWMGLVDPEDGETIYAEKFQGRVTITADTSTDTAYMELSSLRSEDTAVYYCATDATTPYWFPKVWGQGTLVTVSSLEGGGGSGGGGSGGGASDIQMTQSPSSLSASVGDRVTITCQASQDISNYLNWYQQKPGRAPKVLIYDASNLETGVPSRFSGSGSGTEFTLTISNLRPDDFATYYCQQGDSFPLTFGGGTKVEIK"
9,binds,"111_E3 (scFv, not shown: 6xHis/tri-FLAG tags) scFv: QMQLVQSGAEVKKPGAPVKVSCKVSGYTFTDYYMHWVQQAPGKGLEWMGLVDPEDGETIYAEKFQGRVTITADTSTDTAYMELSSLRSEDTAVYYCATDATTPYWFPVEWGQGTLVTVSSLEGGGGSGGGGSGGGASDIQMTQSPSSLSASVGDRVTITCQASQDISNYLNWYQQKPGRAPKVLIYDASNLETGVPSRFSGSGSGTEFTLTISNLRPDDFATYYCQQGDSFPLTFGGGTKVEIK"
10,binds,"111_C1 (scFv, not shown: 6xHis/tri-FLAG tags) scFv: QMQLVQSGAEVKKPGAPVKVSCKVSGYTFTDYYMHWVQQAPGKGLEWMGLVDPEDGETIYAEKFQGRVTITADTSTDTAYMELSSLRSEDTAVYYCATDATTPYWSPWAWGQGTLVTVSSLEGGGGSGGGGSGGGASDIQMTQSPSSLSASVGDRVTITCQASQDISNYLNWYQQKPGRAPKVLIYDASNLETGVPSRFSGSGSGTEFTLTISNLRPDDFATYYCQQGDSFPLTFGGGTKVEIK"
11,binds,"111_C10 (scFv, not shown: 6xHis/tri-FLAG tags) scFv: QMQLVQSGAEVKKPGAPVKVSCKVSGYTFTDYYMHWVQQAPGKGLEWMGLVDPEDGETIYAEKFQGRVTITADTSTDTAYMELSSLRSEDTAVYYCATDATTPYWTPEIWGQGTLVTVSSLEGGGGSGGGGSGGGASDIQMTQSPSSLSASVGDRVTITCQASQDISNYLNWYQQKPGRAPKVLIYDASNLETGVPSRFSGSGSGTEFTLTISNLRPDDFATYYCQQGDSFPLTFGGGTKVEIK"
12,binds,"111_D11 (scFv, not shown: 6xHis/tri-FLAG tags) scFv: QMQLVQSGAEVKKPGAPVKVSCKVSGYTFTDYYMHWVQQAPGKGLEWMGLVDPEDGETIYAEKFQGRVTITADTSTDTAYMELSSLRSEDTAVYYCATDATTPYWGMMRWGQGTLVTVSSLEGGGGSGGGGSGGGASDIQMTQSPSSLSASVGDRVTITCQASQDISNYLNWYQQKPGRAPKVLIYDASNLETGVPSRFSGSGSGTEFTLTISNLRPDDFATYYCQQGDSFPLTFGGGTKVEIK"
13,binds,"111_C9 (scFv, not shown: 6xHis/tri-FLAG tags) scFv: QMQLVQSGAEVKKPGAPVKVSCKVSGYTFTDYYMHWVQQAPGKGLEWMGLVDPEDGETIYAEKFQGRVTITADTSTDTAYMELSSLRSEDTAVYYCATDATTPYWGMMAWGQGTLVTVSSLEGGGGSGGGGSGGGASDIQMTQSPSSLSASVGDRVTITCQASQDISNYLNWYQQKPGRAPKVLIYDASNLETGVPSRFSGSGSGTEFTLTISNLRPDDFATYYCQQGDSFPLTFGGGTKVEIK"
14,binds,"111_D5 (scFv, not shown: 6xHis/tri-FLAG tags) scFv: QMQLVQSGAEVKKPGAPVKVSCKVSGYTFTDYYMHWVQQAPGKGLEWMGLVDPEDGETIYAEKFQGRVTITADTSTDTAYMELSSLRSEDTAVYYCATDATTPYWFPAVWGQGTLVTVSSLEGGGGSGGGGSGGGASDIQMTQSPSSLSASVGDRVTITCQASQDISNYLNWYQQKPGRAPKVLIYDASNLETGVPSRFSGSGSGTEFTLTISNLRPDDFATYYCQQGDSFPLTFGGGTKVEIK"
15,binds,"111_C12 (scFv, not shown: 6xHis/tri-FLAG tags) scFv: QMQLVQSGAEVKKPGAPVKVSCKVSGYTFTDYYMHWVQQAPGKGLEWMGLVDPEDGETIYAEKFQGRVTITADTSTDTAYMELSSLRSEDTAVYYCATDATTPYWFPRYWGQGTLVTVSSLEGGGGSGGGGSGGGASDIQMTQSPSSLSASVGDRVTITCQASQDISNYLNWYQQKPGRAPKVLIYDASNLETGVPSRFSGSGSGTEFTLTISNLRPDDFATYYCQQGDSFPLTFGGGTKVEIK"
16,binds,"111_D2 (scFv, not shown: 6xHis/tri-FLAG tags) scFv: QMQLVQSGAEVKKPGAPVKVSCKVSGYTFTDYYMHWVQQAPGKGLEWMGLVDPEDGETIYAEKFQGRVTITADTSTDTAYMELSSLRSEDTAVYYCATDATTPYWFPWIWGQGTLVTVSSLEGGGGSGGGGSGGGASDIQMTQSPSSLSASVGDRVTITCQASQDISNYLNWYQQKPGRAPKVLIYDASNLETGVPSRFSGSGSGTEFTLTISNLRPDDFATYYCQQGDSFPLTFGGGTKVEIK"
17,binds,"111_C8 (scFv, not shown: 6xHis/tri-FLAG tags) scFv: QMQLVQSGAEVKKPGAPVKVSCKVSGYTFTDYYMHWVQQAPGKGLEWMGLVDPEDGETIYAEKFQGRVTITADTSTDTAYMELSSLRSEDTAVYYCATDATTPYWFPVVWGQGTLVTVSSLEGGGGSGGGGSGGGASDIQMTQSPSSLSASVGDRVTITCQASQDISNYLNWYQQKPGRAPKVLIYDASNLETGVPSRFSGSGSGTEFTLTISNLRPDDFATYYCQQGDSFPLTFGGGTKVEIK"
18,binds,"110_B9 (scFv, not shown: 6xHis/tri-FLAG tags) scFv: QMQLVQSGAEVKKPGAPVKVSCKVSGYTFTDYYMHWVQQAPGKGLEWMGLVDPEDGETIYAEKFQGRVTITADTSTDTAYMELSSLRSEDTAVYYCATDATTPYWSPIWWGQGTLVTVSSLEGGGGSGGGGSGGGASDIQMTQSPSSLSASVGDRVTITCQASQDISNYLNWYQQKPGRAPKVLIYDASNLETGVPSRFSGSGSGTEFTLTISNLRPDDFATYYCQQGDSFPLTFGGGTKVEIK"
19,binds,"111_C6 (scFv, not shown: 6xHis/tri-FLAG tags) scFv: QMQLVQSGAEVKKPGAPVKVSCKVSGYTFTDYYMHWVQQAPGKGLEWMGLVDPEDGETIYAEKFQGRVTITADTSTDTAYMELSSLRSEDTAVYYCATDATTPYWFPQHWGQGTLVTVSSLEGGGGSGGGGSGGGASDIQMTQSPSSLSASVGDRVTITCQASQDISNYLNWYQQKPGRAPKVLIYDASNLETGVPSRFSGSGSGTEFTLTISNLRPDDFATYYCQQGDSFPLTFGGGTKVEIK"
20,binds,"111_B12 (scFv, not shown: 6xHis/tri-FLAG tags) scFv: QMQLVQSGAEVKKPGAPVKVSCKVSGYTFTDYYMHWVQQAPGKGLEWMGLVDPEDGETIYAEKFQGRVTITADTSTDTAYMELSSLRSEDTAVYYCATDATTPYWGAQAWGQGTLVTVSSLEGGGGSGGGGSGGGASDIQMTQSPSSLSASVGDRVTITCQASQDISNYLNWYQQKPGRAPKVLIYDASNLETGVPSRFSGSGSGTEFTLTISNLRPDDFATYYCQQGDSFPLTFGGGTKVEIK"
